Measured values: patent US9549967B2, “Regulation of sodium channels by PLUNC proteins” (The University of North Carolina at Chapel Hill, priority 2009, dated 2017)

Experiments:
α, β and γ ENaC subunits = target: T1, α, β and γ ENaC subunits (Rattus norvegicus, UniProt P37089+P37090+P37091); experiment: Co-immunoprecipitation of V5-tagged SPLUNC1 with HA-tagged ENaC subunits from Xenopus oocytes; assay type: binding; settings: anti-HA immunoprecipitation, probed for V5-tagged SPLUNC1
T1 construct: expressed in transfected cells; host or cells: Xenopus oocytes (cRNA injection), lysates
T1 sequence (P37089 1-698): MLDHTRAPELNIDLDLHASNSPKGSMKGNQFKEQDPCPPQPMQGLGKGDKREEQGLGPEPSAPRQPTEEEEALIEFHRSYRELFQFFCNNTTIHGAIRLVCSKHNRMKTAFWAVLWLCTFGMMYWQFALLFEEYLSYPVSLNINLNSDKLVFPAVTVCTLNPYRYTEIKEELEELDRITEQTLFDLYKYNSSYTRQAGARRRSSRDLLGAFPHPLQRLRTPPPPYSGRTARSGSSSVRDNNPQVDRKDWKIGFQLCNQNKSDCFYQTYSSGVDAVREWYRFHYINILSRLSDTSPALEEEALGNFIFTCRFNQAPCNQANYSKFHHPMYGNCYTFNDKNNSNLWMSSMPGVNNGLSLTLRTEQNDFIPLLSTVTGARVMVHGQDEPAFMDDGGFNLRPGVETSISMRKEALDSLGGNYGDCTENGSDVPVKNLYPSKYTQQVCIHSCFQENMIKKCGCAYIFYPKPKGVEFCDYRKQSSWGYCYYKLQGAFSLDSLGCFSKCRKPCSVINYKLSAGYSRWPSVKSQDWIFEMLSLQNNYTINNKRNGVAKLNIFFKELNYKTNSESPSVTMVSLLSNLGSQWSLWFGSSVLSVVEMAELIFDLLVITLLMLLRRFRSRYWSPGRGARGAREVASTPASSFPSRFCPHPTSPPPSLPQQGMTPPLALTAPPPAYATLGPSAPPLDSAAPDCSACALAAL
T1 sequence (P37090 1-638): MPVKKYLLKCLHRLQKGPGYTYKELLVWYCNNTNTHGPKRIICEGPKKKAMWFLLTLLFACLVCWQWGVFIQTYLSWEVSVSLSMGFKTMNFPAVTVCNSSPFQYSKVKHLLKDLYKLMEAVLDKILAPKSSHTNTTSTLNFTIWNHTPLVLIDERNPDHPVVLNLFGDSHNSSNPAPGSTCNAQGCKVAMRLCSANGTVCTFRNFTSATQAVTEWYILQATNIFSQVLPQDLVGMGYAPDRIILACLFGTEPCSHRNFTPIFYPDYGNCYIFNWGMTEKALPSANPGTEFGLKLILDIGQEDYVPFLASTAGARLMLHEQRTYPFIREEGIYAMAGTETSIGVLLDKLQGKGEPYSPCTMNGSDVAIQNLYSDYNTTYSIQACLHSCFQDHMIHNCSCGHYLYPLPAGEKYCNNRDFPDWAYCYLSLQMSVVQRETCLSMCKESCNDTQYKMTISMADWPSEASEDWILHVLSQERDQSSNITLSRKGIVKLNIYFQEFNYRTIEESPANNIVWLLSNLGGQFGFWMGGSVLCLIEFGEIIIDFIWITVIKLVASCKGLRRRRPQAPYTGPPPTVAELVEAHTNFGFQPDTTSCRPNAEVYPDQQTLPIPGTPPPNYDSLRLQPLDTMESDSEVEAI
T1 sequence (P37091 1-650): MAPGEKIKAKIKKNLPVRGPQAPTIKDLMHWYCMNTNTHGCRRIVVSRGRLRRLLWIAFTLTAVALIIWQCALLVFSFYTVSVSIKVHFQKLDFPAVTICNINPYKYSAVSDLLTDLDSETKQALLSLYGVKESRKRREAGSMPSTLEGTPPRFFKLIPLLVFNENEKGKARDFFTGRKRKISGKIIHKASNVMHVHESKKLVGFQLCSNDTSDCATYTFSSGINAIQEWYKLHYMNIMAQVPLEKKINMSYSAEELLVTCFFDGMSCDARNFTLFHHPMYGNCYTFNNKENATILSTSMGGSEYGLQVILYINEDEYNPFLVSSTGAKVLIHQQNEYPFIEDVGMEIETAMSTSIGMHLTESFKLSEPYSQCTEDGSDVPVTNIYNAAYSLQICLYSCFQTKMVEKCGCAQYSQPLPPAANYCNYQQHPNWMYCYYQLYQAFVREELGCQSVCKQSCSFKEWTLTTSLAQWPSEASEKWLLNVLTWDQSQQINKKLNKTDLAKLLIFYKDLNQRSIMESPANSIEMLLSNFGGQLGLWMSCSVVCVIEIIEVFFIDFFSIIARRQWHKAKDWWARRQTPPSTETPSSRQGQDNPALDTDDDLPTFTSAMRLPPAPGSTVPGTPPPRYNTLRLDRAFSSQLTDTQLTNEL
Experimental: Co-Immunoprecipitation: Xenopus oocytes were injected with either HA-N-Terminus or V5-C-Terminus (HA-NT/V5-CT) tagged subunits in combination with wild type (WT) untagged rat αβγENaC subunits (0.3 ng cRNA each) with or without V5-tagged SPLUNC1 and CAP2 (1 ng cRNA each). After 24 h, 40 eggs per experimental condition were lysed with buffer containing (in mM): 20 Tris, 50 NaCl, 50 NaF, 10 β-glycerophosphate, 5 Na4P2O7 pyrophosphate, 1 EDTA, pH 7.5 and protease inhibitors (complete, Roche), aprotinin (Sigma). Cell lysates were prepared by passing the eggs through a 27 G1/2 needle twice and by centrifugation at 3,600 rpm for 10 minutes at 4° C. Supernatants were transferred to new tubes and samples were spun at 14,000 rpm for 20 minutes at 4° C. Supernatants were discarded and pellets were solubilized in (mM) 50 Tris, 100 NaCl, 0.1% Triton X-100, 0.1% NP-40, 20 NaF, 10 Na4P2O7, 10 EDTA+protease inhibitor cocktail (Sigma), pH 7.5. Total inputs were taken from whole cell samples representing 4% of total protein. Solubilized proteins were incubated with 50 μl of protein A and 5 μl of anti-HA antibody (Covance) overnight while tumbling at 4° C. Samples were washed three times with (mM) 150 NaCl 50 Tris pH 7.5 buffer. Laemmli buffer was added and samples were loaded on a 15% gradient Tris-glycine gel after incubation for 10 minutes at 96° C. […]

αENaC = target: T2, αENaC (Rattus norvegicus, UniProt P37089); experiment: Surface biotinylation of αENaC in Xenopus oocytes; assay type: cell-based; settings: coexpression with SPLUNC1 in oocytes
T2 construct: expressed in transfected cells; host or cells: Xenopus oocytes
T2 sequence (P37089 1-698): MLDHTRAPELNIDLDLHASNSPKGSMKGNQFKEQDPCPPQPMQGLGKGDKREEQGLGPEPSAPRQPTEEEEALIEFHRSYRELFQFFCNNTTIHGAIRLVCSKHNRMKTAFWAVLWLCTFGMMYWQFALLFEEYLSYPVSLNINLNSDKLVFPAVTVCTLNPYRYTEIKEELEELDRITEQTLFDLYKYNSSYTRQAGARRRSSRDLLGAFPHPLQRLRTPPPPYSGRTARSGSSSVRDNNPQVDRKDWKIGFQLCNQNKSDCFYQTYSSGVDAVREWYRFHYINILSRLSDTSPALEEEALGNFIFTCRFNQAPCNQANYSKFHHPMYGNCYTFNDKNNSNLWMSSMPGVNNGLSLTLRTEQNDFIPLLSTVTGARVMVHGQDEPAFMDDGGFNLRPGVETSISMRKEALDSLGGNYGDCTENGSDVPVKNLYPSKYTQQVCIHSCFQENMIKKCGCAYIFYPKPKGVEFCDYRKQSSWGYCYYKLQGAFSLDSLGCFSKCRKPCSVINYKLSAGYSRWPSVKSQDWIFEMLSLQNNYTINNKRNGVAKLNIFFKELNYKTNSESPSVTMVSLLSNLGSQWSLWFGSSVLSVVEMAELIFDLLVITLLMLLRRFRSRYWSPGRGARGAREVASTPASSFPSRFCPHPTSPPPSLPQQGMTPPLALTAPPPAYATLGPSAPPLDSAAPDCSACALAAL
T2 sequence (P37090 1-638 partner): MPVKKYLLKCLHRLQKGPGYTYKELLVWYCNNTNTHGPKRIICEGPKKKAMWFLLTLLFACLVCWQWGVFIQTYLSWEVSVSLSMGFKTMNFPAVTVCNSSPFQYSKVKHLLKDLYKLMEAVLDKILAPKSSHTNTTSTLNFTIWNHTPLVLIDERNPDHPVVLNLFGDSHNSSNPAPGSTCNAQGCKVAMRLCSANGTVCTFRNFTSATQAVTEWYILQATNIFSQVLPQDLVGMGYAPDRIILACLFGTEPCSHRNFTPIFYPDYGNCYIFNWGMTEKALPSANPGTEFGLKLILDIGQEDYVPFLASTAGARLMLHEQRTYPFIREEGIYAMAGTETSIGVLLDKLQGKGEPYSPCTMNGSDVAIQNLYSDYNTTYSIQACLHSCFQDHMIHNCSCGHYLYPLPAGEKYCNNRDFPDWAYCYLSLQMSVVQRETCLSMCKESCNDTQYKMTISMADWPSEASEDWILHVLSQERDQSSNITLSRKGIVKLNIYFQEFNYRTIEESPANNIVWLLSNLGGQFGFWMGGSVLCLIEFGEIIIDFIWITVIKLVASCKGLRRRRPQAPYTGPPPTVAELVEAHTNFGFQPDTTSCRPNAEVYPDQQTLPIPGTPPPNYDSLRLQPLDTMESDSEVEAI
T2 sequence (P37091 1-650 partner): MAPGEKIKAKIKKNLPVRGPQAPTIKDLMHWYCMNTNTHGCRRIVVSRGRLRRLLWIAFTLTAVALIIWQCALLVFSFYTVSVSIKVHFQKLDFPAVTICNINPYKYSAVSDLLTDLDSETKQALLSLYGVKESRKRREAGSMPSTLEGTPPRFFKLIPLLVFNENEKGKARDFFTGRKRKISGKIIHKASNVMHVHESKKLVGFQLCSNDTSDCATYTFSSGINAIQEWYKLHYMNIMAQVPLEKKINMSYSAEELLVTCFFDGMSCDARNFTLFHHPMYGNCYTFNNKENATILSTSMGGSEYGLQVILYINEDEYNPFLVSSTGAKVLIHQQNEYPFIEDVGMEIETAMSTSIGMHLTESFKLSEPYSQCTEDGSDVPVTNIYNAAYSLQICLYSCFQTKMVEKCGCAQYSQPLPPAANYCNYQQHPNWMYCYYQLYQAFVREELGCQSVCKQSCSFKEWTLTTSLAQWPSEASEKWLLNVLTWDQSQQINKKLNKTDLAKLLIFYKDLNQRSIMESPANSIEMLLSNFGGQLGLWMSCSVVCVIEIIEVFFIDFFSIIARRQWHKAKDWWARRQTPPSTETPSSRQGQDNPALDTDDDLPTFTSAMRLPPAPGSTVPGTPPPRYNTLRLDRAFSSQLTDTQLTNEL
Experimental: The effect of SPLUNC1 on the number of ENaC channels in the plasma membrane was tested by expressing SPLUNC1 and αENaC in Xenopus oocytes. After surface biotinylation of αENaC, total lysate was prepared and lysate from 3-4 eggs was separated on a 10% gel.

B1: SPLUNC1: human SPLUNC1, 256 amino acid secreted PLUNC protein (SEQ ID NO:1); rSPLUNC1 = V5/6His-tagged protein purified from HEK293 media (protein, listed as Homo sapiens)
chain: MFQTGGLIVFYGLLAQTMAQFGGLPVPLDQTLPLNVNPALPLSPTGLAGSLTNALSNGLLSGGLLGILENLPLLDILKPGGGTSGGLLGGLLGKVTSVIPGLNNIIDIKVTDPQLLELGLVQSPDGHRLYVTIPLGIKLQVNTPLVGASLLRLAVKLDITAEILAVRDKQERIHLVLGDCTHSPGSLQISLLDGLGPLPIQGLLDSLTGILNKVLPELVQGNVCPLVNEVLRGLDITLVHDIVNMLIHGLQFVIKV
modifications: V5/6His tag
notes: rSPLUNC1 = V5/6His-tagged protein purified from HEK293 media
- binding to ENaC subunits (co-immunoprecipitation) (α, β and γ ENaC subunits): bound to all three ENaC subunits
- plasma membrane ENaC (surface biotinylation) (αENaC): decreased
